In a protein production outcome set (Wang et al. 2014):

Assay: label from the status in PepcDB records

Row | Sequence | protein production
1 | MTITPQQLIALLPLLIVGLTVVVVMLSIAWRRNHFLNATLSVLGLNAALVSLWFVGQNGAMDVTPLIRVDGYAMLYTGLVLLASLATCTFAYPWLEGYKDNKEEFYLLVLIAALGGILLAGANHLAALFLGIELISLPLFGLVGYAFRQKRSLEASIKYTILSAAASSFLLFGMALVYANSGNLSFLALGKSLADNMLHEPLLLAGLGLMIVGLGFKLSLVPFHLWTPDVYQGAPAPVSTFLATASKIAIFGVVMRLFLYMPVGNSEAVRVVLGLIAFASIIFGNLMALSQTNIKRLLGYSSISHLGYLLVALIALQSGEMSMEAVGVYLAGYLFSSLGAFGVVSLMSSPYRGPDADSLFSYRGLFWHRPILSAVMTVMMLSLAGIPMTLGFIGKFYVLAVGVHAHLWWLVAAVVVGSAIGLYYYLRVAVSLYLSAPEQLNRDAPSNWQYSAGGIVVLISALLVLVLGIWPQPLISIVQLATPLM | failed
2 | MTITSFGPANRIARTAETHPLTWRLRDDGEPVWLDEYQTKDGYAAARKALTQQAPDDIVQSVKDSGLKGRGGAGFPTGVKWGLMPKDESMNIRYLLCNADEMEPNTWKDRMLMEQLPHLLIEGMLISARALKAYRGYIFLRGEYVTAAKHLNRAVAEAKAAGLLGKNILGTGFDFELFVHTGAGRYICGEETALINSLEGRRANPRSKPPFPAAVGVWGKPTCVNNVETLCNVPAIVNNGNDWYKSLAREGSEDHGTKLMGFSGKVKNPGLWELPFGVQARELFEDYAGGMRDGFTLKCWQPGGAGTGFLLPEHLDAQMYAGGIAKVGTRMGTGLAMAVDDSVNMVSLLRNMEEFFAQESCGFCTPCRDGLPWSVKILRAIENGHGQPGDIETLLGLVNFLGPGKTFCAHAPGAVEPLGSAIKYFRSEFEAGIAPASAAMLVPGKSPTVVGALEHHHHHH | failed
3 | MTIYSPDTINFNGVSGDRYWFDEPFPYTGVADIDERLSGFPVAVFLPHHRPRQETPLVIGLQGMCAPYGWNAFIVPILIEMGIAVALFDPPLSGERSLVRTSTTLVQNEIKPLIDRGIPFDTALFLSIFRTTARDIGKIREFCGDRYGLTDSRLALFGVSMGVLLSAYAFTANSLGDRLLGTIGHADLPSFAKSWGRPFLPDLAASPLGGLAESLLQRLQPDLAPLFNLLRLTKNLKYQDEYAWDCNPMNYIQQVESHRRVRFLIGANDSIVKIKDARACAQKFPDGDCYIVPGMGHGTRQSGVSFVDHVRYFLATQLGDWRG | failed
4 | MTKACEANKSFLQSAVDKKEYSRTLLVDDGSDEGARSAGAFRPTPHRKGHGGRSPRRDQSPRRDSPQTASRTRLSSELIADLLQKKRERPTRSSSFPKRDKTIARTDRSPRSSPLPRSMGPPPPVIASPSSRSWGERPVGVQILTRRV | failed
5 | MTKAIQSSVQVGELATGQALTVPIYSFMGSENSAPSVYIQANVHGAEVQGNAVIYQLMTLLEGYQVLGDITLAPLANPLGINQKSGEFTLGRFDPITGVNWNREYFDHNVDIQNWYAEHQHLTNSELFCAYRSMLVETCQARLTHSFGISTGHRLAVNLQAMAHQADIVLDLHTGPKSCKHLYCPEYDIDAARFFSIPYTLIIPNSFGGAMDEATFCPWWQLTEYATSQGREFSVPVSAFTLELASQERIDLADALEDAKGILAYLSHRGVIAEKVNPASMERFGCYLKDYKKFHAPKAGLIEYCASVGEPLTAGKPLVNILRIDLYGSEQAYQAISLPMDCVPILHFASASVLQGTELYKVMTNVFPLQPS | not failed
6 | MTKDRQIKKTKTAIYSAFIALLQKKEYSKITVRDMITLANVGRSTFYAHYESKEMLLKELCEELFHHLFRQKRNVTFEDYLVHILKHFEQNKDSIATLLLSNDPYFLLRFKNELEHDVYPNLRCKYIDKTTIPEVFLKQFVLSSFIETLKWWLHQRQRMSANELLKYYLELIK | failed
7 | MTKEPRNLSEWIKELKKASREAVILVEGKNDKKALSKFSIKNVIDLSGKRYADVVDMLEGKWEKVILLFDLDTHGERINQKMKELLSSQGFLVDENFRNFLKKWNIIHIEEINGGKNS | not failed
